Data published in the supplement of paper PMC12764529.
± gives the half width of the 95% confidence interval.

Key:
[1] = folding stability dG unfold from chymotrypsin proteolysis; higher = more stable
How it was run: (§1)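 Only designs with AlphaFold2 dimer inter-PAE above 15 were retained; each was a mini-protein under 80 residues with no cysteine, in a PA-tagged cDNA display construct. After digestion with trypsin and chymotrypsin and sequencing, K50 was inferred by Bayesian fitting of counts, and unfolding free energy was derived per protease or combined against a sequence-predicted unfolded-state K50 and a shared folded-state K50.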

[2] = folding stability dG unfold (combined trypsin and chymotrypsin); higher = more stable
How it was run: as §1

[3] = folding stability dG unfold from trypsin proteolysis; higher = more stable
How it was run: as §1

Sequence	folding stability dG unfold [1] [kcal/mol]	folding stability dG unfold [2] [kcal/mol]	folding stability dG unfold [3] [kcal/mol]
SAGGSAGGKLVIGVFIPGLTPEQAEALVKLLEALGYPKENVTVVVFNVPALPPPGLEELLTKNGSAGGSAGG [r6_243_TrMRF]	2.75 ± 0.042	2.45 ± 0.16	1.77 ± 0.071
SAGGSAGGSADGPPTFRVRIKWKNGKKMKFEIDPNDSLEQVADPLSKLPGIDDIKDLEIYPSAGGSAGGSAG [r3_308_TrROS]	1.05 ± 0.44	0.764 ± 0.18	0.725 ± 0.13
SAGGSAGGSRIVIHWDPDGMFMIEIRDPGESRTFMFDGPEEAENFADKIEDKLGLPVEVTEIYSAGGSAGGS [r12_783_TrROS]	0.681 ± 0.11	0.747 ± 0.099	0.69 ± 0.024
SAGGEVEVKEITMTAEELRELIEELKKEGYLVVIENKTGEKKVIPVKEDDLKPGDEVKIRVFKLKKPSAGGS [r16_31_TrROS_Hall]	0.691 ± 0.39	0.733 ± 0.31	0.537 ± 0.14
SAGGSAGGSSIEEEYAANPENVTVTLPSPGGTPASTITVGNAPVTVTPLPDGDSAVTLDPANKSAGGSAGGS [r12_805_JUSTAS]	1.69 ± 0.035	1.4 ± 0.043	0.727 ± 0.045
SAGGSAGGSAGGSSLYVPGKGYIVERDEAKGYLVIKPIEPDGIVPDAEVFYKPPSVPLISAGGSAGGSAGGS [r4_409_JUSTAS]	-0.102 ± 0.43	-0.271 ± 0.19	-0.879 ± 0.22
KKITVVRPAKTLEEVEQAVRDLLKELNIPEGTKVEVKVEEIPETGAFVATVTVTLPNGEKIEVTVLFPKLFS [r1_84_TrMRF]	2.95 ± 0.081	2.68 ± 0.09	2.26 ± 0.092
SAGGSMMKVTIVDKDGKERVFTFPKDMTEEEVLERIKKELEAEGVEVEEVEVERREDGSLVIRVKKSAGGSA [r2_148_TrROS_Hall]	3.71 ± 0.064	3.93 ± 0.14	4.16 ± 0.4
SAGGSEFPLRITDIHILGGYIVITFQVPPGLDKLEIKIKIELGGKPIEVTMEYTPGNGYMTMIIRLSAGGSA [r2_261_TrROS]	5.52 ± 0.14	5.57 ± 0.31	4.46 ± 0.21
SMPMTVEEFLEANPDVILIRLPNEKVIFINPEEEKAFVLLPETGEVLVIDATLEEVLELVPEFGAEILDESA [r9_721_TrMRF]	2.558 ± 0.025	2.34 ± 0.052	2 ± 0.087
SAGGSAGGSAGMLRVRAVIKRPGGELEELTDVTEEEVLAYAREKGWEIEELKVISPSEKPSAGGSAGGSAGG [r11_283_JUSTAS]	1.91 ± 0.12	1.64 ± 0.13	1.23 ± 0.054
SAGGSAGGSNIKIPSLQIYPNPNGYYISIKIEHEHPDPDGKKHEVEMSFMIWVPPGESLEDLFSAGGSAGGS [r12_889_TrROS]	2.43 ± 0.049	2.29 ± 0.12	2.1 ± 0.078
SAGGSAGVKSSSPNGLTLEFPFESEEEVEEAVKEIKKAFPENYEVKIEIEKSEKILKVKIIVKKKDSAGGSA [r15_80_TrMRF]	2.14 ± 0.061	1.9 ± 0.091	1.08 ± 0.04
SWKIEIPVLVKVDPGETMDEMKDQVVEIADMIAKYMQKQGGPIEVDVDVTPDPEEGYIFVTVEIEVPPGASA [r9_1161_TrROS]	2.9 ± 0.13	2.39 ± 0.29	1.03 ± 0.13
SAGGGPDLPGEVEVEVEITRVEFDPETGELRVEAEATFPDGLVAKVKITFPEPGDLDKFEVEVEVEPASAGG [r13_894_TrMRF]	1.68 ± 0.071	1.59 ± 0.035	1.5 ± 0.052
KKVKIEIEVIHPGPDGWVIRAKVKYPGNNKKKEKPFFFPNPKEFVKEIANELLPKNQLDDVDIEMYPLEEFS [r1_399_TrROS]	0.686 ± 0.14	0.875 ± 0.15	0.973 ± 0.058
APARPPDWVLVDVPVDPTSGLITVHAGDATVTVDLPDGRPAVFYFPRSVSPSDLLAWVVGKARELAEALRAS [r1_25_TrMRF]	2.32 ± 0.19	2.23 ± 0.16	1.9 ± 0.085
AATTATVTLPFAPDDLDAAVEAARELASTLPPDSRITVAVPAPDGSTGTVTATVHPDGTIDVTVSPAAAPAS [r1_350_TrMRF]	1.47 ± 0.04	1.19 ± 0.1	0.731 ± 0.019
SAGGMTITIDPTPDGVRIKIYDDGKPREIPVAPEVLELIQQNPTLEEIIRELFPPGHPIEKIEIEPWSAGGS [r16_567_TrROS]	1.03 ± 0.17	1.15 ± 0.22	1.57 ± 0.071
GMVEVTEERFEPETGKRIVTIRAPGRDLTVTFDPSTGIATFYDPSDGRTFTVPFTSLEEAVEAAKELALEES [r1_177_JUSTAS]	4.81 ± 0.11	4.47 ± 0.11	3.1 ± 0.07
SAMTLTVRVKATPEQLKEALEEETGAKVTIEEEEDGVLTITVEVSEEEREKLAEALKKLPGLEIEIEEESAG [r14_521_TrROS_Hall]	1.89 ± 0.026	1.9 ± 0.091	1.94 ± 0.067

Sequence	folding stability dG unfold [1] [kcal/mol]	folding stability dG unfold [2] [kcal/mol]	folding stability dG unfold [3] [kcal/mol]
SAGGSAGGSAEKRIVAKVTEVRENEDGEKTVRVRITLPNGEELEVEVRRVERVGDYLVIELSAGGSAGGSAG [r3_261_TrROS_Hall]	1.2 ± 0.048	1.29 ± 0.089	1.26 ± 0.037
SAGDLLKNLPPEIVEVEEVKTLPDGTKYFLVKVKKDGKERVFVIELDKNGKIVKIEEMSKEEAEKLLKKSAG [r5_73_TrROS_Hall]	3.74 ± 0.097	3.32 ± 0.17	1.84 ± 0.088
SAGGSAGGSAGGSSMTIEEQKEKIKKEVPLGKSVTIEYPDKTVTLTIDPKSGKITVTISSAGGSAGGSAGGS [r4_150_JUSTAS]	1.44 ± 0.021	1.17 ± 0.12	0.61 ± 0.079
SAGGNKEHKVTLEIYIMMWPDPDNGQPYPMPLEIEAPYKNNDPEAAEADIKELLKEIPIPPWMKDMISAGGS [r16_40_TrROS]	0.692 ± 0.15	0.988 ± 0.39	1.19 ± 0.12
SAGGSAPLVATEVSVEGNTIVVRSVTRLPNGTLSEDVVLIELPPLPLPPPAPWSTFPETGRLRLGPSAGGSA [r15_335_JUSTAS]	0.76 ± 0.21	0.481 ± 0.24	0.159 ± 0.15
SAGGSAGGSAGMTAKIVERRVLPGDGYLLLVEHPDGSRSAIVVPPELLENLDISDTVEFDSAGGSAGGSAGG [r11_943_TrMRF]	0.591 ± 0.026	0.598 ± 0.064	0.576 ± 0.038
SAGGSAGGSAGGMTVERDPEKPVVTVTITDPSGASIVVEIPYETEEEAEAAVKKVIEELASAGGSAGGSAGG [r7_756_JUSTAS]	1.53 ± 0.07	1.83 ± 0.13	2.11 ± 0.091
SAGVIPESLIEKVETEEYPGGITRSTYTYPDGVTVTVEETKVPGTDGITRKITVYPPTNTTTETTVTDPSAG [r5_802_JUSTAS]	0.348 ± 0.16	0.44 ± 0.12	0.29 ± 0.098
MALPERLRELTPPVPPELALEAALKRAEELGLEEVREVRVLSVTPDGYIEVEIELPEGGSVRIRIPLEDLFS [r1_435_TrMRF]	0.608 ± 0.18	1.15 ± 0.12	1.51 ± 0.071
SAGGMPLPDEKVNITITINYTLPGGKPKTITIPATNWTVEEANEKKKKVEEELKKVPPDPVEKDGKLLSAGG [r13_330_JUSTAS]	-0.281 ± 0.24	-0.354 ± 0.21	-0.745 ± 0.19
SAGGSAEKPEIGAEIVTYKDKDKPLYIVAVPFFDENGNLVGVLVKEFDNPEEAKEFLEALGFGKIESAGGSA [r15_127_TrMRF]	1.68 ± 0.038	1.56 ± 0.12	1.55 ± 0.14
SAGGSAGGSAGKKTLPTYDPKKGKISLIVIEDKEGKEIVFEAFGDGKEFIEAAKEFEKKISAGGSAGGSAGG [r11_119_TrMRF]	0.182 ± 0.064	-0.0388 ± 0.099	-0.463 ± 0.12
SAGGSAGGSAGPEKTVTLRVKITNADGQEQTLELTAETEEEALAALRALLPPGAKVEIEPSAGGSAGGSAGG [r11_671_TrROS_Hall]	3.66 ± 0.07	3.35 ± 0.087	1.99 ± 0.067
SAGGSAGGSAGGKIVKIEFDKETKEIKITLPNGKKITISKEDLKNMKIEIKVYPKKKKKKSAGGSAGGSAGG [r7_98_TrROS_Hall]	2.45 ± 0.1	1.8 ± 0.35	0.774 ± 0.093
SAGPGHELKIDIERDPGNGIIKLSITYPNGIKYEMLIFRNPDNGKWFIFINIERDPGRIKIDIGIFPLSAGG [r19_394_TrROS]	5.05 ± 0.13	4.7 ± 0.2	3.28 ± 0.083
SAGKKKTLTLTLGNVTITITYDEDTGTLRIKVTATVTTVTLDKDTKELTTEKKTVTTEIEIPLAPGATLSAG [r5_195_TrROS_Hall]	2.79 ± 0.086	2.67 ± 0.2	2.76 ± 0.18
SAGGSASIEELLKEIIDNLKPGEKYKITIEVDGEEKTFTFTNKNGEKIEIVVKDGKIVSIKIEKLPSAGGSA [r15_175_TrROS_Hall]	4.21 ± 0.12	3.97 ± 0.3	2.5 ± 0.4
SAGGMKVATVTLLTRDPSSDRTFEVTVEVPDDIVEKGDIEEAIARAKQLAEERGYPILEVEVEVKEPPSAGG [r13_954_JUSTAS]	0.625 ± 0.12	0.922 ± 0.12	1.13 ± 0.046
SAGGSAGGGMPMNIKVEEITSETIPPDVTVSETKVIDPSGKELKYLTVTTVRTDGKTSVLTVEGSAGGSAGG [r6_830_JUSTAS]	-0.58 ± 0.56	-0.0271 ± 0.31	0.201 ± 0.087
SAGGGLIRDAIENNPELRELLKEGYVLYVTYPDGKSGVIEINNASASEIDDAIRAHFPGEVELEFGSSAGGS [r16_655_TrMRF]	0.389 ± 0.048	0.752 ± 0.046	1.04 ± 0.028
SAGGMKVYKISFPNATVTYEEETGKVTINPPDGSTKVIEISPDISIEEVAKKLAEELGFTEATITPEPSAGG [r13_852_JUSTAS]	1.36 ± 0.057	1.48 ± 0.068	1.59 ± 0.095
